According to a protein production outcome set (Wang et al. 2014):

Test: label from the status in PepcDB records

Sequence	protein production
MLELFMQPEAWVIFATLFALEVVLGVDNVVFISVLCERLPSHQRKLARNLGIGLAVLARIGLVFSITWIMQLTQPLFSVANHAVTGRDMIMILGGAFLLAKSLKELWSWLTHNETDHSTHVRTGLAVVLLQIVAVDAVFSMDSVITAVGLTSEVPLMVAAIIASALVMVMTAEKINNLVTRYPGFKTLALLFLVLLGGLLMAEGFAIHINKGYVYFAMAFGLALELCHIQLKNKQRRTIQRIRPMHDVAT	failed
MLEQSLRHYYQLVLVDPILPALRDRITPLSITWLSGIFGLLFIPFVLLDKPYIAISFLLLSGYLDTLDGSLARFQNRASDFGSAMDIVIDRIVEFSAVLALYLFDPQHRATLAILMLGSILLCITSFLVVGIFSNNTTQKSFYYSPGIMERAEAFLFFIFMTLFSSCFNFLAALFCFLVCLTALIRLFEFKKSVQAPS	failed
MLESVAAEPRRAAATDQAGTEARKQRLRRRLERLIGIAATEGNELVPLRNGDEIFPAMLRAIRTAEHTVDMMTFVYWRGQIARDFAAALAERARAGVRVRLLLDGFGAKQIEEGLLESMNSAGVEVAWFRKPLWLSPLKQNHRCHRKVLVVDEHTAFTGGVGIAEEWGGDARNPSEWRDTHVQVRGPAVDGIAAAFAQNWAECHDELFDERDRFTEHEQSGRATVQVVRGSASFGWQDMQTLVRVMLASAEERFRLSTAYFAPDSYFVDLLCATARRGVQVQILLPGPYTDQRACRLAGQHYYGTLLDAGVEIRQYQPTMLHTKIMTVDGVAALIGSSNFNRRSMEHDEEIMLAVLDETFTAALDRDFEEDRERAEAIVAARWKHRSPVQRLKEAIVAPVRRFL	failed
MLFFNVASLKYKHHESIQMIIDRIDHLVLTVSDISTTIRFYEEVLGFSAVTFKQNRKALIFGAQKINLHQQEMEFEPKASRPTPGSADLCFITSTPINDVVSEILQAGISIVEGPVERTGATGEIMSIYIRDPDGNLIEISQYVLEHHHHHH	not failed
MLFGDSVAIAFAQVSIHSRSKGHSAVAAAAYRSGARLYDDRIGRAYDFSKRDDVAFSEILLPDGTTDSFLERDYLWNEVERAENRSNSQLCKDFVLALPRELNLEQQIELAKRFARTHFVEKGLPADIAIHDHGDGNPHAHILIPTRRLENNRFSKYKARDLNPVFAKGFLVEQDYWGEQWREMQNEFFIENNLDLQVDANHLIAERHRGKHHNANAHYLLEENQLIQQARMELTRDNIDLVIDHLSTQYSVFTRRDVERLLFKTFQASDSPQEYLQFVERVLGHQDLVALGDNNKGEPSFTTRTHLMQEAQLLHDIEAMMVSKNHVVHQPIDSLAQQYRLSEEQYEAFRYITQSPDISVVIGRPGTGKSYLLKPLNEYYIQAGMEVIGAALSGKVAKALQAETGITSSTIKSLSYRLANDMMQLSDKHVLIIDEAGMVDFSSMGYLIKEAHKAGSKVVLIGDPDQLKPIQKGEIFRGIAARTGYIELENIKRQQDLGDRQASLNLAKGDIDKAIQHYQDKGAITITDTKLQAIEQVVADWKQDLESTNMADSIMLSYTRKAVNHLNDLAREALIVENKIGEENIVYQGLERSLKISTGERLLLRENNKVLGVRNGDTATVKEINVQQMKIQLDSGELLIIPKEYKALDYAYALTVHKSQGMTAKKVRVLIDSKYWDRNLSFVAMTRHKEQLNIYADKENHPTEQALKQTLSRSSTKDNVIDWPLDFAIRAGFDSDSLISRALNHIVGVGHKIKQAYNFIVNYEASLLKARHQERFQDIGQAIADAKQEALKVDTKEFESNDCKTSEQSFGILKKDFPQLVELETLIKRRQRMTGYFAEKTDKQIMALTQQLLTNKTFANQVKYQVPEFYQKLQSIDNKQKEKALLQNH	failed
MLFIFLTIAALGLSFWAQFKVKSNFEKYSKVEASSGRTGAETARRILDINGLYDVPVEPVRGTLTDHYDPTRRVVRLSEPVYYGRSISAISVASHEVGHALQHQESYGALVLRHKIFPVVNFASGVAPLLFLGGMLLGSLNLIGLGIILFSAAVFFQLITLPVEFNASSRAKQIIVSEGFIRNNEENGVNKVLSAAALTYVAAALVSLFELLRFVMIFLNGRDEN	failed
MLFKTIFYQKLQKKVTTLFNLETERVIREIENLNKNNPKVIFQAPEGLKLKVEKEIEKIKQYFKQKNINIEIYLWGNTCFGACDLIDNHVKNLNVDLIIHYGHEKLSYANPEIKTLFIPAYHIFNKDEEEKILNDIKNFIEKHKSGGKKVAIATTIQYKKLLKDFNPSIILGCRGEVKEGDVILFVGTGRFHPLMIAYKYQKEVFIYNPLSKCFDKISEEEINKFIKKRILAISKLLLNKPKKVGVVLSTKKGQCRKRVFDEIIKLLEENDVNYLPILVDNISPDILFYDVDCYIIVACPRIVLDDYILYKKPIYTPEEFKLFLKNSFKYKFDEIKEDDFLEHHHHHH	not failed
MLFLVKEIYLQHLIQFFYVGFGIFLLYLGGNLLLKSSVGIATYLKVPTLLIGVTIVSFSTSAPELFTSLVAAFKGKNEIVVSNVIGSNIINMLLALPLAGFFLKIKADFKRLKLSFMFLFLLMFLLLLLSFDFRSYSFFVTPYNRFSSFSILILFLSYLLLFYKEEKEYASLENSFQEGASNLNQSFNFIFFNLLSFAISMYFLYLGSKLLVDGALYIANNVFNVSEKLIGIILVAFGTSVPELVVSLFAIIRKESDIAFGNIIGSNIFNIGFILASSSFFRPILLQDIYILDFSIMVFITLVLFLVVKFKGVFGRGISLIFLLLYFLYNLMLFNFY	failed
MLFRHKGILYLFLSSLIISAANPVIAKLITLGNEHLVNGRNPISFCNVLFAGNFIAVLTLILIHFRELKEFQPEHLTAKNWCLIFLAALFAGFLTPTLFFLGLMYTNVINVVLISNLQIPMTLLAGWIFLGEVPNIRVTTGAFLATLGVFAIVILQYWLGGAGALTPNPEMKTGPLFIFLSSIPRSGEICIFLAVVSSTASTIIGFHALRRLPHYLFSILKMLLGLVLFFFIVISMFGWHHFADLFSPFLWEWMLFYGSVIIALRYYFSMLGMKHAKVAEVAISSSIIPLMSIIFSYLILGEVPGISQIIGGSLILFGIYVALTGKLQAPEKTEILEKPSGFSGV	failed
MLFTQALLVTLVGIIATIDYNGPLFMIHRPLVTSAMVGLVLGDFTQGVLIGSALELTWLGVTGIGGYTPPDTISGAIIGTAFGILSGQGETAGIAIAVPIAVATQQLDVLAKTLDVYFVKKADNDAKNGDYSKIGFYHYSSLVLITLFKIVPIFLAIMLGGEYVADLFAKVPPIVMQGLNSAGALLPSIGFGMLLNMMLKKNMWVFLLIGFICSVYGGMSTIGISLVGIAVAYFYDMIGSKPQETTSSSDVEEDLDL	failed
MLGAAPENCTVNELNPDRANQLRSQGFTVTEQDATAYLPNQLYDVVIMNPPFGRVKGKRFRLAGEMGTTSQIDQAIALHSLQAMKDDGRAVLILG	failed
MLGGNNDNPVPQVLMNDSQFRYQSNTSLNQLHLLGTMRAGCTIDPVNYFANDNLAPMMRLNSTRGRETENNNIMQRQQKLQISLNYNYNNNNTVVQDEVPKQNLVSTGLRLSYDDDERNSSVTSANGSITTPVYQSLGDNIRLDLNRQNDELDQFIKFRADQMAKGVRDIKQRHVTSFVTALEKDVSKKLQEKDHEIESMNKKNRELVDKIKQVAVEAQNWHYKAKYNESVVNALKVNLQQVMSHGNDNNAVGGGVADHHQMKEGFGDSEIDDEAASYNYLNIPGMPSTGMRCKLCNVKNVSVLLVPCRHLSLCKDCDVFTGVCPVCQSLKTSSVQVFFF	failed
MLGNTLVGRYQIISHLGGGGFGETFVACDTHLPGLPKCVVKKLQPQANDPATLEIARRLFDTEAQVLYKLGSCDRIPQLLAYFEEDAEFYLVQEFIPGHDLSKELTPGKVFTQDEVTILLQEILTILEFVHQQNVIHRDINPRNLLRRQDGKLILIDFGAVKQITTQIVTPTGENKSTVIIGTPGYIPGEQAQGNPKFSSDIYAVGIVAIQALTGLLPHQLEHDADTHEIIWQNHAQVSSEFARFIDKMVCYDFRQRYAAATTALQALTELTQPASNTIAITPTLPPAKFRFNHTKKSIFIKLLLAILLTSATGIASVFVVNSINSNNATDLAKKGNTFFELQRYKDALSAYEQAVDIRPDYAPAWQGKGKTLFRLKQYQDALTAYDKAIQIQPDYVEAWSGRGFSLQNLQRYSEAIASFDKALQLNENYPEVWNARGEAFSNLKQYDQAIKSYDKAIEFNSDAYESFYNKGLALQSMKEYNEAINAYNKAIEIKSDYERAWYNLGNSLVNLNRYEDAFKAYDKAVQYKTDYAIAWLSRGNVLIILRRYPEALESFNQVIKFNPNNYQAWYGRGWSQHQNQRYAEAIESYKKAATIKPSNYEIWYSLGNSQYILQQYQEAIASYNKAVRYRPKHIESWYSRGNALFSLKQYKEAIASYEQAIKHKPDYSQAINARDEAQRQLQAATPKPVVIPVMPTPEFTNPPQDN	failed
MLGVILLYVGMVLMSNGLHRLEGIPDKSNVVMNIFTGGLGLILNIIVIAYGACTGQGAEWFYGSATGLLFAFTYLYSAINTIFDFDQRLYGWFSLFVAINTLPAGILCLTSGYGGNAWYGIIWFLWGVLWLTAFIEINLKKNLGKFVPYLAIFEGIVTAWIPGLLMLWGKW	failed
MLHELFSVYLKMLVLYSPFFVLSCFISLTRGHSSKERKQLAWKVAFAALVASVLLYLFGRAIFGIFGITADAFRIGAGSVLFISALGMAQGKPAVQADNVQQDVTIVPLTIPLTVGPGTIGALLVMGVSQPHWDEKLLAIVSIALASFTVGLVLYLSHGIERLLGDQGLQIVSRLMGLFVCALAAQIIFTGIRGYLLP	failed
MLHLLTLSSLGRDLFNIKMLIVILITIGLITLMTILTYLLEQQVHRRQNRYWTIGAHGAEALSVLISMILLRQIFITLNSGSIISWTYATVQLTILLFSLNTMRNLAVEIINLLMPLFIYGQAIWLGHSTQYLPVFLAMAIILISTVVYITHNYQELHATQWKYLLFQILYSGTWWGVIWSVHPFKLSHTLVIILAFVLYMWLIRLAVNRVQKFFNEVLTFDQQVNYDELTGIRNRASFDTHAREVFAAYQHHQMGPVTMVMFDIDHFKAFNDQYGHLAGDAVLRHVAHFVELELNQRSTHGQIFRYGGEEFVIIFRGISALEAGQIMRTIQRKLKTVPIKFNVQTLNVTVSIGISELQPTDQTFTDWFVRVDDYLYQSKQAGRDQTTVESQLLTD	failed
MLHSSIVLVIKEETMNVAKMYDDVSERYQKLVDDSHYVGPRWISGKLKTLPIEQGSALDLACATGSIGHVVKNHYPDLTIHGLDISSKMVDKARQTNLYQSVSVHNLDEPFSPLFEQTFDLITALGFTEFLAEPQQLLECISRKLTANGRCFISFQYHDPDGQDLPRNTYSGSVVHTAYTESEVEQLCQQAGLEVVSLENVIGYVSGVGYVCRYLMLELKKSHR	failed
MLIERIYDEDLAQASYFIGCQAHNTAVVVDPRRDIAVYLDMAKKNGMEIVGVTETHIHADYLSGTRELAAATNATMYVSGEGGADWQYEFDAERICDGSEIRLGNLVLTAVHTPGHTPEHLSFLLKDGAFADEPGFMLTGDFVFAGDLGRPDLLDEAAGGVDTRFEGARQMFKSLKEKFLTLPDHIQIFPGHGSGSACGKALGSVPSTTLGYERQFAWWGKYLEADDEQGFIDELLEGQPDAPAYFGRMKRQNRQGPAIMGARELLPQLEASDLHDVIVVDTRSADEVHQGTVAGAVNIPAGNSMAKFGSWTVDPEKDSRALVLLAASQIGAMEMWDHMVRVGIDNVAGFITNFDGVDLVAPQTVSPDQLDELEYDLLLDVRNRSEVEEGYIPGALHINGASVLWNLEKLPRDGKIVSYCKSGTRSSIAASTLRNAGFDVVELQGSYDNWVRHNAQLEHHHHHH	not failed
MLIKLTGGTVYDPANGIDGQVRNLFIRDGRIVHSLNGATPDQEYDLRGKVVMAGAIDMHTHIGGGKVTIARNLLPELEHHHHHH	not failed
MLIRKADAQDLDAICRLAAQINRQHHQALPELFLAAADADADRAFWRARLEGEDSVLLVAEREGAVLAFLTAQLQSSPPLPFLQARRICRIGTIVVDEACQGQGIGSRLLAAAEDWGRRQDADELRLEVMQFNQGALAFYARHGLAAQSQIMSKSLAGAAR	failed
